# Test: soluble fraction after stress (log2 fold change); higher = more stays soluble; pooled small domains, quantitative proteomics
# Conditions: stress: 50 degC
# Summary of the method: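 Custom libraries of small protein domains were pooled and measured in a high-throughput format, with quantitative proteomics as the read-out. Each library was stressed at 50°C. The value is the log2 fold change in the amount of each protein that stays soluble after stress, used as a measure of aggregation propensity; higher values mean more of the protein stays soluble.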
row,Sequence,soluble fraction (log2)
1,HMDTGKLQSLVGSRGVAHTVLRPSGKVMIGDDVYPAVAETGFIPRGTAIVVRREEQGQLYVVEARK,0.179
2,HMKVWYAGINAQRVGPMTLGAMEQQIRYGRVLFSTLIWKSPMPQWVPAGDVPELRRLLDEHMLNQMP,-0.381
3,HMLVKKYTEEETGRQAELSKQLAELSKAYYNTGNSMVDDAVFDKLRDELSSLEKESGFAYDISPNVS,-0.953
4,HMAGQWQQDQNGWKYKTDNGDHMKNTWYQDSDSRWYYFGPDGYMKSSTMTPDGYVVGSDGAWIE,-0.518
5,HMGIYFIIAAKNQENNIEEFIRTTLFRIVYGKEESINNITLVDLKSKDNTKNIMEEIARENENVKV,-0.335
6,HMDKGQRGWINLVSVPTARVIIDGYDTGHETPLYGYEVERGKRKVTLISLDGTYERTYEIRIEPGTTTRVR,-0.775
7,HMRSAKLPYSEFLKLVDTDKVNDVSIVGRTISGHLDDGSKFSTYTPPNDPNIIEKLSSHNVIINSAPE,-0.0117
8,HMRQEIIEDSRKLLEESLKRYDLTYQEFIDTLKSKNMNVESTLINIIKNQSSLDLVLRNLGLIAP,-0.0959
9,HMIDTLEYIISEESKGLRADQAITMVNGEFSRSLIQKWIKKGSILVNGKKIKPRDILNLNDKVTINPEEN,-0.0699
10,HMKFGETLIDLRKRNGLTQEELAAKLYVTRQAVSRWERGEVTPGIDMLKLIANVLNEPVAHLLDW,-0.977
11,HMAVNDPDEKFIELGIPADWVQVVRKAGFQTVEALKTVENPNKLHQELSGLNKKMKLGLKTLSQDEVKDWF,0.215
12,HMAGYDTYMVDRDAELLPWLLETLQRESRSKVKATLQGNGIKVNGKRVTQFNYPLKAGMKVSVSKSK,-0.0376
13,HMPTANFPAMAEALKKQYGPPTGEEETSWTHRLGGVFDIKIQSWNTPQGEMVLRSRGAAMDAGML,0.439
14,HMQKYEDIINVTRERLQNKFYSQTVIPTDDDIYIWLDKVAILEEIKLSKEDRQMLFNLLKKEAT,-0.451
15,HMEYREFEAMTIRAIATLPPTQGHVIMLSRFEGLDNKEIALRLNLSLQTVKNTLTQGLKELKNKMRKLP,-1.8
16,HMEHGQWLSEAQGASLAADWLARRRGVLPLNARRHLSGLSDQIARQIEGGLSREAGLYTAHEMMESLDP,-0.224
17,HMLSAQEIPVEDIATRDFVLAEDVVSAKKVLLLPKGVDLSWFGSAKKRLVQRLKSEGVTHIRVFA,-0.0541
18,HMAIEGIFEKYQRRSDQLIPILQDVQKEFGYIAPESVRHISRYLRISENQIFGVSSFYAQFRFT,-0.292
19,HMKNYYSILGVTPDSSEAEIKSAYRRLARKFHPDVNPDGASRFKDISEAYETLSDAKKRFQYDTINGF,0.107

row,Sequence,soluble fraction (log2)
1,HMSQNISSTKLIPENIKIGMSVFVIPLQQKGIVQSLPNRSKEVLVQIGNAKINVKINNLKLIED,0.295
2,HMNTLPTDELMKYGIINEDLSFSKKLNADDIQKFLQGYTIVADNDKNRATFQLTENNTKLKVIFLER,-0.438
3,HMFGQRLRLARKRAGLSMQALAQRMSPPVTAQAISKYEADRMMPSSAVLVGLGKALGVSLDFLMGGQ,-0.835
4,HMENTELIELRKKRNLSQSQLAELLDLTRNQIANYESGRRIPDQETKQIIAGFFEMPAEEIFAG,0.0435
5,HMNAFEIYPNPASNLIRIDAEFTVAKIFSQTGNLIQTSTTKEIDVYNLANGIYFVKLDDSPSMVKFVIN,-0.705
6,HMYDDLEPFDANGRLRWSDKELILAFGRHRGVTLQTLELNDPGYLRWLLSGNGPLEQQDRKRLEDILES,-1.27
7,HMGLDPVFKKWVDDNPWYTENRVLRALTHDYAEELKQTNPQLVGVEFLDQVKKRVQADHPEFFQ,0.141
8,HMAMESDELETLVDQLIVDHPDEWSRFVGGDDGDRKKMQGFFTGQIMKATKGQADGRAVAQLLGQKSA,0.0334
9,HMSIDNALLTLIGKTGTAQTVLRPSGKVVIGDEVYDAVTAGEFIDKGSAIVVTRVEATQLYVEASEA,0.0555
10,HMSADIGAEKAKTIALNHAGVSASNAVFLHAKLDYDDGRRTYEVEFYSGSKEYDYEIDAATGEILSYDFD,-0.777
11,HMSTPERQEVLDILKRQGEMTPLQIAGQISRTSKSVSNILSKLKREGFVANGAKYGSWVSTES,0.0492
12,HMSGRIWTDNYGRTIEADVIKVNINRTVLLEFTDKKTKTVSFDTFISKDIQYLEYLLTRRNRGKL,-3.9
13,HMRSNADALIGRTARVSQTIVENGFGRVALDGDDWKAQAADGSRIEEGQNVIVKDRDSIILTVEKE,0.074
14,HMRLIDVFELSPKNRTVLQLYYYEGYSVTEISKILKISVNGVTSRLSRARSKLKLEMEAAENE,-0.316
15,HMPIMDSDDKYEALGIPQEWIAVVKKAGYQTVEALKAVENPNKLHQELSVMNKKEKLGLAGLTPEMVKAWL,0.342
16,HMEEILLSVKADGTYWVDQKEVTLDEVGALLDKEPDRLLNIFMDEKVPVRHFINVVDIAKVKREGRFII,-0.453
17,HMRPIDEVFGFFSRPENLTVITPSNLHFNILTPRPLEMKQGAVIDYTIKIFKVPIHWRTLITTYDPPFKFV,-0.288
18,HMELVEVGDLTGLTVEQAENVLKNSNISISIDKYDESDKYEKDQIISQNPQNKKVKKGTAIHVVLSNGP,0.0285
19,HMPELFLFNPDTASAATFQALGFSARQAGVLIHFREALGGRFGSVEQFSKSYVVDSATLERLRPYMVF,-3.63
